According to article PMC2695398:

Target: Soluble HLA-DR15 (DRA, DRB1*1501) (human)
Test: fluorescence polarisation

## Alexa488 labeled derivative of the human myelin basic protein (MBP) 85-99 peptide
  fold acceleration of peptide binding by DM at pH 4.7: 15 fold
  fold acceleration of peptide binding by DM at pH 5.6: 8 fold
  fold acceleration of peptide binding by J10-1 at pH 4.7: 15.6 fold
  fold acceleration of peptide binding by J10-1 at pH 5.6: 28 fold
  fold acceleration of peptide binding by J10-1 at pH 7.1: 12.6 fold
  fold acceleration of peptide exchange by 10 uM J10-1: 15.9 fold
  fold acceleration of peptide exchange by 30 uM J10-1: 66.4 fold
  fold faster rate of binding with DR15/CLIP than with DR15/pMBP as input complex: > 10 fold
  half-life of the complex (t1/2) with 100 uM J10: 4.48 h
  half-life of the complex (t1/2) with 100 uM J10-1: 1.93 h
  half-life of the complex (t1/2), no small molecule: 35 h
